We go through three proteins from publication PMC10419308, “Structural Insight into the Amino Acid Environment of the Two-Domain Laccase’s Trinuclear Copper Cluster” (International Journal of Molecular Sciences, 2023).

Substitutions are numbered along the chain they refer to. In names and notes the source's numbering stands.

Substrate in series [1]: CCn1c(=NN=c2sc3cc(S(=O)(=O)O)ccc3n2CC)sc2cc(S(=O)(=O)O)ccc21
Kind of series: purified protein. Format: biochemical, Streptomyces griseoflavus. The note with it: pH 4.0, 50 mM Britton-Robinson buffer, 30 °C, co-substrate O2, table header prints unit as MM.

Substrate in series [2]: COc1cccc(OC)c1O
Briefly: purified protein. Format: biochemical, Streptomyces griseoflavus. The conditions noted are these: 30 °C, co-substrate O2, table header prints unit as MM.

The mark [3] stands for this setting: pH 8.5, 50 mM Britton-Robinson buffer.
[4] abbreviates: pH 7.5, 50 mM Britton-Robinson buffer.
[5] abbreviates: pH 7.0, 50 mM Britton-Robinson buffer.

B1: SgfSL (Streptomyces griseoflavus Small Laccase) (Streptomyces griseoflavus; D268N/M199G/R240H) (protein)
chain: AGAAPAGGEVRRVTMYAERLAGGQMGYGLEKGKASIPGPLIELNEGDTLHVEFENTMDVPVSLHVHGLDYEISSDGTKQNKSHVEPGGTRTYTWRTHEPGRRADGTWRAGSAGYWHYHDHVVGTEHGTGGIRNGLYGPVIVRRKGDVLPDATHTIVFNDGTINNRPAHTGPNFEATVGDRVEIVMITHGEYYHTFHMHGHHWADNRTGMLTGPDDPSQVIDNKICGPANSFGFQIIAGEGVGAGAWMYHCHVQSHSDMGMVGLFLVKKPDGTIPGYDPQEHAH
notes: pET32-Xa/LIC, E. coli BL21(DE3)/Rosetta; N-terminal thioredoxin-His tail cut off with factor Xa; homotrimer; all variants tested here carry D268N (wild-type data copied from earlier work)
Regarding B1, in series [1], the Km was determined as 250 ± 20 µM, the kcat was 38.9 ± 0.99 s⁻¹ and the kcat/Km was 156000 M⁻¹ s⁻¹. Besides, in series [2] (setting [3]), the Km worked out at 240 ± 30 µM, the kcat was 8.19 ± 0.13 s⁻¹ and the kcat/Km was determined as 34100 M⁻¹ s⁻¹.

B2: SgfSL (Streptomyces griseoflavus Small Laccase) (Streptomyces griseoflavus; D268N/M199G) (protein)
chain: B1 chain with H201R
notes: as for B1
Regarding B2, in series [1], the Km stood at 220 ± 30 µM, the turnover number (kcat) was found to be 37.7 ± 2.41 s⁻¹ and the kcat/Km was found to be 171000 M⁻¹ s⁻¹. Moreover, in series [2] (setting [4]), the Km stood at 290 ± 20 µM, the kcat turned out to be 1.88 ± 0.05 s⁻¹ and the kcat/Km came to 6490 M⁻¹ s⁻¹.

B3: SgfSL (Streptomyces griseoflavus Small Laccase) (Streptomyces griseoflavus; D268N/M199A) (protein)
chain: B1 chain with G160A, H201R
notes: as for B1
Take B3: in series [1], the Km is 110 ± 30 µM, the kcat was determined as 21.4 ± 1.12 s⁻¹ and the kcat/Km is 195000 M⁻¹ s⁻¹. Moreover, in series [2] (setting [5]), the Km turned out to be 870 ± 100 µM, the kcat came out at 0.8 ± 0.03 s⁻¹ and the kcat/Km amounted to 920 M⁻¹ s⁻¹.

Broadly, the Km is the substrate concentration at which the rate is half of its maximum. The kcat is the number of substrate molecules converted per active site and unit of time at saturation. The term kcat/Km denotes the second-order rate constant that governs catalysis at low substrate concentration.
